Source: paper PMC6650407 (Scientific Reports, 2019)
Where a chain is given by its changes, count along the chain named. In names and notes the source's numbering stands.

T1: SyFumC (GST-SyFumC; Synechocystis 6803 fumarase C) (Synechocystis sp. PCC 6803, UniProt Q55674)
T1 construct: gene fumC
T1 sequence (Q55674 1-466): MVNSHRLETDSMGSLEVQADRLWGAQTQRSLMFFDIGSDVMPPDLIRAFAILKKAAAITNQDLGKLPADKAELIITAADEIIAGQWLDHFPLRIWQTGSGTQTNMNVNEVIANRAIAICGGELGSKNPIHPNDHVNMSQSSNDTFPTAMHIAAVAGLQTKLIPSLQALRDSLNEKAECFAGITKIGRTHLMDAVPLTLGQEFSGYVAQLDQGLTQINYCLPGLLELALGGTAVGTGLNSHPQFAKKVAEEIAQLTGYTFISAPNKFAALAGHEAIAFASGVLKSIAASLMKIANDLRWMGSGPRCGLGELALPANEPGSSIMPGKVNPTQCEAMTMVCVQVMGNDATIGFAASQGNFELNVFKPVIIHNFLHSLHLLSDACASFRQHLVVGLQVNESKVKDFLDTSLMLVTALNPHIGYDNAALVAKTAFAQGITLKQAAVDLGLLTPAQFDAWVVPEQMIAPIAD

B1: SyFumC (GST-SyFumC; Synechocystis 6803 fumarase C) (Synechocystis sp. PCC 6803 substr. Kazusa) (protein)
chain: T1 sequence (Q55674 1-466)
B2: SyFumC (GST-SyFumC; Synechocystis 6803 fumarase C) (Synechocystis sp. PCC 6803 substr. Kazusa; A314E) (protein)
chain: T1 sequence (Q55674 1-466) with A314E

Assays:
[1] = biological target: T1, SyFumC (GST-SyFumC; Synechocystis 6803 fumarase C); test: inhibition, absorbance at […] nm; type: biochemical; settings: read-out: % of control activity at 4 mM
[2] = biological target: T2, SyFumC (GST-SyFumC; Synechocystis 6803 fumarase C) (Synechocystis sp. PCC 6803, UniProt Q55674, A314E); test: absorbance at […] nm, saturation curve; type: biochemical; settings: 100 mM Tris-HCl pH 7.5, 30 °C, no effector
T2 construct: gene fumC
T2 sequence (Q55674 whole entry A314E): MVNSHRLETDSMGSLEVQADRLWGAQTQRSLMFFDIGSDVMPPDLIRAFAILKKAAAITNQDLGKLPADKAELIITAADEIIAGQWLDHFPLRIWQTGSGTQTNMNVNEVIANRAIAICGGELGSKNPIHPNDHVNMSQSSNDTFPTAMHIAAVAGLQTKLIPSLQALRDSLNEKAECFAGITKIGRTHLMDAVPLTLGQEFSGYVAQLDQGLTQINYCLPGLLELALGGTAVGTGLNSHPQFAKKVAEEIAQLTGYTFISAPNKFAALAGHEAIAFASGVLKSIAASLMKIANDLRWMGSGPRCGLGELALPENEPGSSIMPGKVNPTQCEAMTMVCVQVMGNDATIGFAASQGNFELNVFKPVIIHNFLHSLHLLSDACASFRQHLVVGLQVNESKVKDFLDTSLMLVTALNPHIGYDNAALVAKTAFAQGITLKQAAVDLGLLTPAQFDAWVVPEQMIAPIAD

[3] = biological target: T1, SyFumC (GST-SyFumC; Synechocystis 6803 fumarase C); test: absorbance at […] nm, saturation curve; type: biochemical; settings: 100 mM Tris-HCl pH 7.5, 30 °C, no effector
purified protein = substrate: O=C(O)C[C@H](O)C(=O)O; test: purified protein; settings: 100 mM Tris-HCl pH 7.5, 30 °C, no effector

Row | Molecule | remaining activity at 4000 µM [1] [%] | Km [2] [µM] | Km [3] [µM] | Km (purified protein) [µM] | kcat (purified protein) [s⁻¹] | kcat/Km (purified protein) [M⁻¹ s⁻¹]
1 | O=C(O)CCC(=O)O [succinate] | 45 to 58 | – | – | – | – | –
2 | O=C(O)/C=C/C(=O)O [fumarate] | – | 179 ± 36 | 244 ± 26 | – | – | –
3 | B1 | – | – | – | 478 ± 112 | 42.3 | 90300
4 | B2 | – | – | – | 442 ± 20 | 21.6 | 49000
